Substrate in series [1]: C[C@](O)(CO)[C@H](O)COP(=O)(O)O
Kind of series: Michaelis-Menten kinetics. The format is biochemical, Escherichia coli. The settings on record: Mg2+; CTP active site; natural substrate.

Substrate in series [2]: C[C@](O)(CO)[C@H](O)C=C(F)P(=O)(O)O
Kind of series: purified protein. The settings on record: Mg2+; CTP active site (alternative substrate).

Substrate in series [3]: C[C@](O)(CO)[C@H](O)C=CP(=O)(O)O
Kind of series: purified protein. The settings on record: Mg2+; CTP active site (alternative substrate).

Substrate in series [4]: C[C@](O)(CO)[C@H](O)CC(F)(F)P(=O)(O)O
Kind of series: purified protein. The settings on record: Mg2+; CTP active site (alternative substrate).

Substrate in series [5]: C[C@](O)(CO)[C@H](O)CCP(=O)(O)O
Kind of series: purified protein. The settings on record: Mg2+; CTP active site (alternative substrate).

Substrate in series [6]: C[C@](O)(CO)[C@H](O)C[C@H](F)P(=O)(O)O
Kind of series: purified protein. The settings on record: Mg2+; CTP active site (alternative substrate).

B1: IspD (Escherichia coli K-12) (protein)
chain: ATTHLDVCAVVPAAGFGRRMQTECPKQYLSIGNQTILEHSVHALLAHPRVKRVVIAISPGDSRFAQLPLANHPQITVVDGGDERADSVLAGLKAAGDAQWVLVHDAARPCLHQDDLARLLALSETSRTGGILAAPVRDTMKRAEPGKNAIAHTVDRNGLWHALTPQFFPRELLHDCLTRALNEGATITDEASALEYCGFHPQLVEGRADNIKVTRPEDLALAEFYLTRTIHQENT
For B1, the Km (in general, the concentration of substrate that gives half-maximal velocity) in series [1] was determined as 100 ± 20 µM; in the series “purified protein [2]”, 700 ± 500 µM; in the series “purified protein [3]” it was 4000 ± 1000 µM; in the series “purified protein [4]”, 1900 ± 700 µM; in the series “purified protein [5]” it was 1300 ± 200 µM; in the series “purified protein [6]”, 1000 ± 100 µM. Further, the kcat (in general, the maximal rate divided by the concentration of active sites) in series [1] worked out at 18.2 ± 1 s⁻¹; in the series “purified protein [3]” it was 0.09 ± 0.01 s⁻¹; in “purified protein [4]”, 0.2 ± 0.0333 s⁻¹; in the series “purified protein [6]” it was 0.217 ± 0.01 s⁻¹. Besides, the kcat/Km – broadly, the turnover number divided by the Michaelis constant – in series [1] worked out at 180000 M⁻¹ s⁻¹; in the series “purified protein [3]”, 20 M⁻¹ s⁻¹; in the series “purified protein [4]”, 110 M⁻¹ s⁻¹; in the series “purified protein [6]”, 220 M⁻¹ s⁻¹.

The values above are taken from paper PMC6133773.
